B1: Septin-5 (Homo sapiens), Q99719 (parent)
chain: MSTGLRYKSKLATPEDKQDIDKQYVGFATLPNQVHRKSVKKGFDFTLMVAGESGLGKSTLVHSLFLTDLYKDRKLLSAEERISQTVEILKHTVDIEEKGVKLKLTIVDTPGFGDAVNNTECWKPITDYVDQQFEQYFRDESGLNRKNIQDNRVHCCLYFISPFGHGLRPVDVGFMKALHEKVNIVPLIAKADCLVPSEIRKLKERIREEIDKFGIHVYQFPECDSDEDEDFKQQDRELKESAPFAVIGSNTVVEAKGQRVRGRLYPWGIVEVENQAHCDFVKLRNMLIRTHMHDLKDVTCDVHYENYRAHCIQQMTSKLTQDSRMESPIPILPLPTPDAETEKLIRMKDEELRRMQEMLQRMKQQMQDQ
partner: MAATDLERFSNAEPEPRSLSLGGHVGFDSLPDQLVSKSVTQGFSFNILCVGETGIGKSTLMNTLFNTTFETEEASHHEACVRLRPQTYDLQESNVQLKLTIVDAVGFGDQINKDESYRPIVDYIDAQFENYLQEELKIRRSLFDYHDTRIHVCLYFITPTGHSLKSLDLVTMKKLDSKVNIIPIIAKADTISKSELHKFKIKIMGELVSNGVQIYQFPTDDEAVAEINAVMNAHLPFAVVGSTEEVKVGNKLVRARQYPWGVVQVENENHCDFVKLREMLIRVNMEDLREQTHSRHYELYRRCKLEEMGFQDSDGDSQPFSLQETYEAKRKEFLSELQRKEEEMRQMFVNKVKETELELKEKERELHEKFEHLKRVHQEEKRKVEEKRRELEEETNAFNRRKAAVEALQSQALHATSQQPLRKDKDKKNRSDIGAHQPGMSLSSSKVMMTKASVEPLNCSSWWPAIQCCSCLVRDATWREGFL

Variants of: B1
Conditions: with sept8_human SEPTIN8, Q92599

Variant | effect of a mutation on the interaction
MSTGLRYKSKLATPEDKQDIDKQYVGFATLPNQVHRKSVKKGFDFTLMVAGESGLGKNTLVHSLFLTDLYKDRKLLSAEERISQTVEILKHTVDIEEKGVKLKLTIVDTPGFGDAVNNTECWKPITDYVDQQFEQYFRDESGLNRKNIQDNRVHCCLYFISPFGHGLRPVDVGFMKALHEKVNIVPLIAKADCLVPSEIRKLKERIREEIDKFGIHVYQFPECDSDEDEDFKQQDRELKESAPFAVIGSNTVVEAKGQRVRGRLYPWGIVEVENQAHCDFVKLRNMLIRTHMHDLKDVTCDVHYENYRAHCIQQMTSKLTQDSRMESPIPILPLPTPDAETEKLIRMKDEELRRMQEMLQRMKQQMQDQ [S58N] | disrupting interaction strength
MSTGLRYKSKLATPEDKQDIDKQYVGFATLPNQVHRKAVKKGFDFTLMVAGESGLGKSTLVHSLFLTDLYKDRKLLSAEERISQTVEILKHTVDIEEKGVKLKLTIVDTPGFGDAVNNTECWKPITDYVDQQFEQYFRDESGLNRKNIQDNRVHCCLYFISPFGHGLRPVDVGFMKALHEKVNIVPLIAKADCLVPSEIRKLKERIREEIDKFGIHVYQFPECDSDEDEDFKQQDRELKESAPFAVIGSNTVVEAKGQRVRGRLYPWGIVEVENQAHCDFVKLRNMLIRTHMHDLKDVTCDVHYENYRAHCIQQMTSKLTQDSRMESPIPILPLPTPDAETEKLIRMKDEELRRMQEMLQRMKQQMQDQ [S38A] | with no effect
MSTGLRYKSKLATPEDKQDIDKQYVGFATLPNQVHRKSVAAGFDFTLMVAGESGLGKSTLVHSLFLTDLYKDRKLLSAEERISQTVEILKHTVDIEEKGVKLKLTIVDTPGFGDAVNNTECWKPITDYVDQQFEQYFRDESGLNRKNIQDNRVHCCLYFISPFGHGLRPVDVGFMKALHEKVNIVPLIAKADCLVPSEIRKLKERIREEIDKFGIHVYQFPECDSDEDEDFKQQDRELKESAPFAVIGSNTVVEAKGQRVRGRLYPWGIVEVENQAHCDFVKLRNMLIRTHMHDLKDVTCDVHYENYRAHCIQQMTSKLTQDSRMESPIPILPLPTPDAETEKLIRMKDEELRRMQEMLQRMKQQMQDQ [K40A;K41A] | with no effect

Source: IntAct's records for PubMed 15214843
